Tests used:
[1] = target: human FRα on cells (human) (UniProt P15328); experiment: flow cytometry on IGROV-1 cells (endogenous FRα), negative control; set-up: unit not given here
[2] = target: human FRα on cells (human) (UniProt P15328); experiment: flow cytometry on JEG-3 cells (endogenous FRα), negative control; set-up: unit not given here

Sequence of human FRα on cells (human) (P15328 25-234 limits assumed): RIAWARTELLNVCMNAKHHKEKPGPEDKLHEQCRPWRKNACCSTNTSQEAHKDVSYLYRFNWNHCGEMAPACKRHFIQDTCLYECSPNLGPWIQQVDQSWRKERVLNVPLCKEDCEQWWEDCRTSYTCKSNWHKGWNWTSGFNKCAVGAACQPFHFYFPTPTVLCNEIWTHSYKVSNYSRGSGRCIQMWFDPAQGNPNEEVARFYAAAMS

Bmax [1]: 208
Bmax [2]: 144
Substance: Human IgG (antibody)

— patent publication US20240424125A1
